Laboratory results reported in US6323185, “Anti-viral guanosine-rich oligonucleotides and method of treating HIV” (The United States of America as represented by the …).

What was measured:
[1] = biological target: T1, HIV-1 integrase wild-type (IN1-288) (HIV-1, UniProt P12497 P12497:1148-1435); experiment: inhibition; 3'-processing; strand transfer 0.125 uM; conditions: G4
[2] = biological target: T1, HIV-1 integrase wild-type (IN1-288); experiment: inhibition; first activity column (headed strand transfer); other column 0.084; conditions: G4
[3] = biological target: T1, HIV-1 integrase wild-type (IN1-288); experiment: inhibition; first activity column (headed strand transfer); other column 0.060; conditions: G4
[4] = biological target: T2, gp120 envelope glycoprotein (HIV-1, UniProt P04578 P04578:33-511); experiment: competition; ID50, gp120/CD4 ELISA; conditions: tags: gp120 capture ELISA kit
[5] = biological target: T1, HIV-1 integrase wild-type (IN1-288); experiment: inhibition; first activity column (headed strand transfer); other column 0.610; Table C-2 prints 3' end ggg; conditions: G4
[6] = biological target: T1, HIV-1 integrase wild-type (IN1-288); experiment: inhibition; first activity column (headed strand transfer); other column 0.500; conditions: G4
[7] = biological target: T1, HIV-1 integrase wild-type (IN1-288); experiment: inhibition; first activity column (headed strand transfer); other column 0.055; conditions: G4
[8] = biological target: T1, HIV-1 integrase wild-type (IN1-288); experiment: inhibition; first activity column (headed strand transfer); other column 0.050
[9] = biological target: T1, HIV-1 integrase wild-type (IN1-288); experiment: inhibition; 3'-processing (+/-17); strand transfer 24 nM; Table C-2 0.060/0.020 uM; conditions: intramolecular G4
[10] = biological target: T1, HIV-1 integrase wild-type (IN1-288); experiment: inhibition; 3'-processing; strand transfer 0.023 uM; conditions: G4
CD4 = CD4 (UniProt P01730 P01730:26-396); experiment: competition; ID50, oligo with immobilized CD4; conditions: tags: immobilized, gp120 capture ELISA kit
[11] = biological target: T2, gp120 envelope glycoprotein; experiment: competition; ID50, gp120/CD4 ELISA, preincubated with gp120; conditions: tags: gp120 capture ELISA kit
[12] = biological target: T1, HIV-1 integrase wild-type (IN1-288); experiment: inhibition; first activity column (headed strand transfer); other column 0.120; conditions: G4
[13] = biological target: T1, HIV-1 integrase wild-type (IN1-288); experiment: inhibition; 3'-processing; strand transfer 620 nM; conditions: G4
[14] = biological target: T1, HIV-1 integrase wild-type (IN1-288); experiment: inhibition; first activity column (headed strand transfer); other column 0.156; conditions: G4
[15] = biological target: T1, HIV-1 integrase wild-type (IN1-288); experiment: inhibition; first activity column (headed strand transfer); other column 0.030; conditions: G4
[16] = biological target: T1, HIV-1 integrase wild-type (IN1-288); experiment: inhibition; first activity column (headed strand transfer); other column 0.070; conditions: G4
[17] = biological target: T1, HIV-1 integrase wild-type (IN1-288); experiment: inhibition; first activity column (headed strand transfer); other column 0.062; conditions: G4
[18] = biological target: T1, HIV-1 integrase wild-type (IN1-288); experiment: inhibition; first activity column (headed strand transfer); other column 0.013
[19] = biological target: T1, HIV-1 integrase wild-type (IN1-288); experiment: inhibition; 3'-processing; strand transfer 0.070 uM; conditions: G4
[20] = biological target: T1, HIV-1 integrase wild-type (IN1-288); experiment: inhibition; first activity column (headed strand transfer); other column 0.134; conditions: G4
[21] = biological target: T1, HIV-1 integrase wild-type (IN1-288); experiment: inhibition; 3'-processing (+/-26); strand transfer 134 nM; conditions: G4
[22] = biological target: T1, HIV-1 integrase wild-type (IN1-288); experiment: inhibition; first activity column (headed strand transfer); other column 0.100; conditions: G4
[23] = biological target: T1, HIV-1 integrase wild-type (IN1-288); experiment: inhibition; first activity column (headed strand transfer); other column 0.016; conditions: G4, loop 3 inverted
[24] = biological target: T1, HIV-1 integrase wild-type (IN1-288); experiment: inhibition; first activity column (headed strand transfer); other column 0.095; conditions: G4
[25] = biological target: T1, HIV-1 integrase wild-type (IN1-288); experiment: inhibition; 3'-processing; strand transfer 0.123 uM; conditions: one tetrad disrupted
[26] = biological target: T1, HIV-1 integrase wild-type (IN1-288); experiment: inhibition; first activity column (headed strand transfer); other column 0.040; conditions: G4
[27] = biological target: T1, HIV-1 integrase wild-type (IN1-288); experiment: inhibition; first activity column (headed strand transfer, order matches 3'-processing in Table D-1); other column 0.600; conditions: G4
[28] = biological target: T1, HIV-1 integrase wild-type (IN1-288); experiment: inhibition; first activity column (headed strand transfer, order matches 3'-processing elsewhere); other column 0.750; Table B-7 gives >0.5 for both; conditions: G4

B1: T30175 (ssDNA)
DNA: GTGGTGGGTGGGTGGGT
modifications: all phosphodiester
- IC50 [1]: 170 nM

B2: T30661 (ssRNA)
RNA: GUGGUGGGUGGGUGGGU
modifications: PS at first and last linkages, RNA sugars
- IC50 [2]: 111 nM

B3: T30744 (ssDNA)
DNA: GTGGTGGGCGGGTGGGT
modifications: PS at first and last linkages
- IC50 [3]: 105 nM

B4: 1174 (ssDNA)
DNA: GGGTGGGTGGGTGGGTGG
modifications: all PS
- IC50 [4]: 90 nM

B5: T30674 (ssDNA)
DNA: GTGGTTGGTGTGGTTGGT
modifications: PS at first and last linkages
- IC50 [5]: 760 nM

B6: T30675 (ssDNA)
DNA: GTGGTGGGTGTGGTTGGT
modifications: PS at first and last linkages
- IC50 [6]: 485 nM

B7: T30719 (ssDNA)
DNA: GGGTGGGTGGGTGGGT
modifications: PS at first and last linkages, capital T = C5-propynyl dU
- IC50 [7]: 55 nM

B8: T30578 (ssDNA)
DNA: GTGGTGGGTGGGTGGGT
modifications: PS at first and last linkages, 5-iodo-dU at position 13 [n positions 13 = modified dU]
- IC50 ([8]; G4): 60 nM

B9: T30695 (ssDNA)
DNA: GGGTGGGTGGGTGGGT
modifications: PS at first and last linkages
- IC50 [9]: 43 nM

B10: T30341 thrombin-binding aptamer PT (ssDNA)
DNA: GGTTGGTGTGGTTGG
modifications: all PS (Table B-7; Table C-1 lists it as pPT)
- IC50 [10]: 42 nM

B11: I100-12 (ssDNA)
DNA: GTTGGGGGTTGTTGGTGGGGTGGTGG
modifications: all PS
- IC50 (CD4): 475 nM
- IC50 [11]: 80 nM

B12: T30678 (ssDNA)
DNA: GTGGTGGGTGGGTTGGT
modifications: PS at first and last linkages
- IC50 [12]: 98 nM

B13: T30677 (ssDNA)
DNA: GTGGTTGGTGGGTTGGT
modifications: PS at first and last linkages
- IC50 [13]: 725 nM

B14: T30576 (ssDNA)
DNA: GTGGTGGGTGGGTGGGT
modifications: PS at first and last linkages, 5-iodo-dU at position 5 [n positions 5 = modified dU]
- IC50 ([8]; G4): 65 nM

B15: 1232 random PT (ssDNA)
DNA: GATCCATGTCAGTGACAC
modifications: all PS
- IC50 [4]: > 10000 nM
- IC50 (CD4): > 10000 nM

B16: T30579 (ssDNA)
DNA: GTGGTGGGTGGGTGGGT
modifications: PS at first and last linkages, 5-iodo-dU at positions 5, 9, 13 [n positions 5,9,13 = modified dU]
- IC50 [7]: 60 nM

B17: T30679 (ssDNA)
DNA: GTGGTTGGTGGGTGGGT
modifications: PS at first and last linkages
- IC50 [14]: 159 nM

B18: T30701 (ssDNA)
DNA: GTGGTGGGTGGGTGGGT
modifications: PS at first and last linkages, capital T = C5-propynyl dU
- IC50 [15]: 72 nM

B19: T30699 (ssDNA)
DNA: GTGGGTGGTGGGGTGGT
modifications: PS at first and last linkages
- IC50 ([8]; G4, loops 1 and 3 inverted): 136 nM

B20: T30571 (ssDNA)
DNA: GTGGTGGGTGGGTGGGT
modifications: PS at first and last linkages, 5-bromo-dU at positions 5, 9, 13 [n positions 5,9,13 = modified dU]
- IC50 ([8]; G4): 55 nM

B21: T30570 (ssDNA)
DNA: GTGGTGGGTGGGTGGGT
modifications: PS at first and last linkages, 5-bromo-dU at position 13 [n positions 13 = modified dU]
- IC50 [16]: 90 nM

B22: I100-21 (ssDNA)
DNA: GTGGTGGGTGGGTGGGTGGTGGGTGGTGGTTGTGGGTGGGTGGTG
modifications: all PS
- IC50 (CD4): 48 nM
- IC50 [11]: 70 nM

B23: T30720 (ssDNA)
DNA: GGGGTGGTGGGTGGGT
modifications: PS at first and last linkages, capital T = C5-propynyl dU
- IC50 [17]: 59 nM

B24: 1231 random (ssDNA)
DNA: GATCCATGTCAGTGACAC
modifications: phosphodiester, amine
- IC50 [4]: > 100000 nM
- IC50 (CD4): > 50000 nM

B25: T30697 (ssDNA)
DNA: GTGGTGGGGTGGTGGGT
modifications: PS at first and last linkages
- IC50 ([18]; G4, loop 2 inverted): 130 nM

B26: T30038 (ssDNA)
DNA: GTGGTGGGTGGGTGGGT
modifications: all PS
- IC50 [19]: 90 nM

B27: T30722 (ssDNA)
DNA: GTGGGTGGTGGGTGGGT
modifications: PS at first and last linkages, capital T = C5-propynyl dU
- IC50 [20]: 129 nM

B28: T30676 (ssDNA)
DNA: GTGGTGGGTGTGGTGGGT
modifications: PS at first and last linkages
- IC50 [21]: 148 nM

B29: T30745 (ssDNA)
DNA: GTGGTGGGTGGGCGGGT
modifications: PS at first and last linkages
- IC50 [22]: 100 nM

B30: T30696 (ssDNA)
DNA: GTGGGTGGTGGGTGGGT
modifications: PS at first and last linkages
- IC50 ([18]; G4, loop 1 inverted): 122 nM

B31: T30577 (ssDNA)
DNA: GTGGTGGGTGGGTGGGT
modifications: PS at first and last linkages, 5-iodo-dU at position 9 [n positions 9 = modified dU]
- IC50 [7]: 65 nM

B32: T30698 (ssDNA)
DNA: GTGGTGGGTGGGGTGGT
modifications: PS at first and last linkages
- IC50 [23]: 150 nM

B33: T30075 (ssDNA)
DNA: GTGGTGGGTGGGTGGGT
modifications: 3'-cholesterol via triglycyl linker
- IC50 [24]: 110 nM

B34: T30702 (ssDNA)
DNA: GTGGTGGGTGGGTGGGT
modifications: PS at first and last linkages, capital T = C5-propynyl dU
- IC50 [15]: 32 nM

B35: T30526 (ssDNA)
DNA: GTGATGGGTGGGTGGGT
modifications: PS at first and last linkages
- IC50 [25]: 200 nM

B36: T30700 (ssDNA)
DNA: GTGGTGGGTGGGTGGGT
modifications: PS at first and last linkages, capital T = C5-propynyl dU
- IC50 [26]: 82 nM

B37: T30673 (ssDNA)
DNA: GTGGTTGGTGTGGTTGG
modifications: PS at first and last linkages
- IC50 [27]: 790 nM

B38: T30659 thrombin-binding aptamer pPT (ssDNA)
DNA: GGTTGGTGTGGTTGG
modifications: PS at first and last linkages (Table B-7; Table C-1 lists it as PT)
- IC50 [28]: 870 nM
